Data from patent publication US20090054250.
Read-outs that look alike come from different tables or passages of the source.

Key:
[1] = test system: IgE immunoglobulin, P01854-1; settings: n at position 18 is 2-aminopurine replacing C [18 (2-aminopurine replacing C)]; PAGE purified, saturating IgE; affinity stated comparable to unmodified aptamer; screening buffer 20 mM Tris pH 7.1, 140 mM NaCl, 5 mM KCl, 10 mM CaCl2, 10 mM …
[2] = test system: IgE immunoglobulin, P01854-1; settings: saturating IgE

IgE immunoglobulin, P01854-1, sequence (P01854 other isoform, or with tags, fused parts or gaps): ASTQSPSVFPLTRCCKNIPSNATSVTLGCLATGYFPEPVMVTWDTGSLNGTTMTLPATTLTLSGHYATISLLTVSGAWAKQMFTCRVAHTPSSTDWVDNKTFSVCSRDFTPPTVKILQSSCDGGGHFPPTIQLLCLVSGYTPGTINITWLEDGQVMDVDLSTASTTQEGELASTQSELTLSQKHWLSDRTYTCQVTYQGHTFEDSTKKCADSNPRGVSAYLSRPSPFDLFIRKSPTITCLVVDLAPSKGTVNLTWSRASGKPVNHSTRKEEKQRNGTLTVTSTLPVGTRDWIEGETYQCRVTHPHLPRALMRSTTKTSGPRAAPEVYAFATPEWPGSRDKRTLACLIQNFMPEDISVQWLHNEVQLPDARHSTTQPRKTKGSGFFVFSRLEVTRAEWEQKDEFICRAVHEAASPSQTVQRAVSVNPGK

Question: Which binding signal (fold fluorescence increase) [1] does the source give for “GGGGCACGTTTATCCGTCCCTCCTAGTGGCGTGCCCC [IgE aptamer 2AP-18]” here?
Answer: Its binding signal (fold fluorescence increase) is 5.6.

Question: Which binding signal (fold fluorescence increase) ([2]; n at position 18 is 6MAP replacing C [18 (6MAP replacing C)]) does the source give for “GGGGCACGTTTATCCGTCCCTCCTAGTGGCGTGCCCC [IgE aptamer 6MAP-18]” here?
Answer: The binding signal (fold fluorescence increase) was 1.9.

Question: With “GGGGCACGTTTATCCGTCCCTCCTAGTGGCGTGCCCC [IgE aptamer 3MI-18]” as the sequence, how does the binding signal (fold fluorescence increase) ([2]; n at position 18 is 3-methylisoxanthopterin replacing C [18 (3-methylisoxanthopterin replacing C)]) read?
Answer: Its binding signal (fold fluorescence increase) is 1.5.
